The target of this data set is T1, nAPG07433.1-APG09980 (synthetic).
T1 chain: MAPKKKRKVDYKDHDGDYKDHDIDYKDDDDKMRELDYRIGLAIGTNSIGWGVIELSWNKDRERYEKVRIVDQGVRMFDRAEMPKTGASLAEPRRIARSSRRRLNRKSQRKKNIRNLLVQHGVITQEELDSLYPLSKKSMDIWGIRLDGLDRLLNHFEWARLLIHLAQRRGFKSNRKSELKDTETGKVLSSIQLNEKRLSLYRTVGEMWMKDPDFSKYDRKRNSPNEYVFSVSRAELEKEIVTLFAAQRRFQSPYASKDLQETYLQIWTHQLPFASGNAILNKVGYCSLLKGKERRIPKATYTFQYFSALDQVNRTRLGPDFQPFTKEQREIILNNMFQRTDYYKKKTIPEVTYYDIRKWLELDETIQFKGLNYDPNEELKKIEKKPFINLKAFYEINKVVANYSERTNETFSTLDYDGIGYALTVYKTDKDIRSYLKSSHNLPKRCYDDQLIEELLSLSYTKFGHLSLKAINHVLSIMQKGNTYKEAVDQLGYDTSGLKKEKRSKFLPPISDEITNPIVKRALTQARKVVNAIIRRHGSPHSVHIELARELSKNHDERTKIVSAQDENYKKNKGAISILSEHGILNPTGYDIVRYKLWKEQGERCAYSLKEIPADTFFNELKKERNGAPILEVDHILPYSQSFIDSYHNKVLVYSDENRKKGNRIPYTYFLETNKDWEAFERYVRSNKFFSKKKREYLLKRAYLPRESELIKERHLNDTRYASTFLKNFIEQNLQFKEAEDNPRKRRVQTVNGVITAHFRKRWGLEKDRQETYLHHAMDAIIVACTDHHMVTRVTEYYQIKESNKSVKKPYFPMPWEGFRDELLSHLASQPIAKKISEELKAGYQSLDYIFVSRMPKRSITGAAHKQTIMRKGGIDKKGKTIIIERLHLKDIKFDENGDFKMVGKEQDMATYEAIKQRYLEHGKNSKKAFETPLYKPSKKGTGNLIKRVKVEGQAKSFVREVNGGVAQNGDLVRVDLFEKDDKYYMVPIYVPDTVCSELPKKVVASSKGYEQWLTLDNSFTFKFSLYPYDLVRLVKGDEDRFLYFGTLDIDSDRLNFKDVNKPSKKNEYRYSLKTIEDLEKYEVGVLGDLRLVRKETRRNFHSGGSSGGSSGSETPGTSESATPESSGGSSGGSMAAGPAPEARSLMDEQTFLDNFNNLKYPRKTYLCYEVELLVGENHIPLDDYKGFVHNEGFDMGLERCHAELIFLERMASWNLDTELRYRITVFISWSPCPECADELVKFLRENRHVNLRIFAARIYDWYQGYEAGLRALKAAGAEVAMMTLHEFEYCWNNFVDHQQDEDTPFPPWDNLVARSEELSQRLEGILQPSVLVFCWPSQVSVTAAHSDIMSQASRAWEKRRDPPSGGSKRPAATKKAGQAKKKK
Description: cell_activity; HEK293FT; C>G predominant; PAM SEQ 152. Conditions: tags: SV40 NLS, 3xFLAG N-term; nucleoplasmin NLS C-term.

B1: SGN000930 sgRNA ; SGN000930 target (ssRNA ; dsDNA)
RNA: GAACAACUCAAAUGGAAAUGAAUAUGUCAUAGUUCCAUGAAAGCCAAAAGUGGCUUUGAUGUUUCUAUGAUAAGGGUUUCGGCCCGUGGCGUCGGGGAUCGCCUGCCCAUUCCGAUGGGCUUCUCCCCAUUUAUU
DNA 1: GAACAACTCAAATGGAAATGAATAT
DNA 2: ATATTCATTTCCATTTGAGTTGTTC
B1 came in with an activity of 18.4 % mutated reads.
